Assay results published in patent publication US6261760A, “Regulation of the cell cycle by sterols” (priority 1999, dated 2001).

System: LDL FC uptake by fibroblast monolayers
Experiment: Effects of metabolic inhibitors on uptake of 3H-cholesterol from LDL (Example 1)
Conditions: cells pretreated with proteinase K; 4 experiments

B1: proteinase K: proteinase K pretreatment of cells (protein, UniProt P06873 106-384, looked up)
Proteinase K: AAQTNAPWGLARISSTSPGTSTYYYDESAGQGSCVYVIDTGIEASHPEFEGRAQMVKTYYYSSRDGNGHGTHCAGTVGSRTYGVAKKTQLFGVKVLDDNGSGQYSTIIAGMDFVASDKNNRNCPKGVVASLSLGGGYSSSVNSAAARLQSSGVMVAVAAGNNNADARNYSPASEPSVCTVGASDRYDRRSSFSNYGSVLDIFGPGTSILSTWIGGSTRSISGTSMATPHVAGLAAYLMTLGKTTAASACRYIADTANKGDLSNIPFGTVNLLAYNNYQA
inhibition of uptake of 3H-FC LDL label: 7±6%
